Source: US20260250404A1 (Genmab, published 2026)
Where a chain is given by its changes, count along the chain named. Names and notes keep the numbering of the source.

What was measured:
[1] = molecular target: T1, recombinant human neonatal Fc receptor FcRn (SinoBiological CT071-H27H-B) (human, UniProt P55899 24-297; P61769 21-119); assay: SPR (Biacore 8K) at pH 6.0; FcRn captured by anti-His, antibody as analyte; average of three measurements; pH 6.0
T1 construct: Composition of the bought protein is not described

[2] = molecular target: T2, recombinant His-tagged human FcγRIIa, 167-His [H] / H131 variant (human, UniProt P12318 34-218, limits assumed); assay: SPR (Biacore 8K), His-tagged FcγR captured on anti-His chip, antibody injected, binding response (RU), n=3
T2 construct: catalogue numbers differ; also called FcγRIIa-H; FcγRIIa-H131
T2 sequence (looked up): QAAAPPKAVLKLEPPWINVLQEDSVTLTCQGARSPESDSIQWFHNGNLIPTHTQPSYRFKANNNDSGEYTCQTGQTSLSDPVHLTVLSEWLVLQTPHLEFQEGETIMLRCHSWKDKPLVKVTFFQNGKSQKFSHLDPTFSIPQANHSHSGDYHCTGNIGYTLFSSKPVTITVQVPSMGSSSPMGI

[3] = molecular target: T3, recombinant His-tagged human FcγRIIa, 167-Arg [R] / R131 variant (human, UniProt P12318 34-218, limits assumed); assay: as above
T3 construct: catalogue numbers differ; also called FcγRIIa-R; FcγRIIa-R131
T3 sequence (looked up): T2 sequence (looked up) with H134R

[4] = molecular target: T4, recombinant His-tagged human FcγRIIb (human, UniProt P31994 43-217, limits assumed); assay: as above
T4 sequence (looked up): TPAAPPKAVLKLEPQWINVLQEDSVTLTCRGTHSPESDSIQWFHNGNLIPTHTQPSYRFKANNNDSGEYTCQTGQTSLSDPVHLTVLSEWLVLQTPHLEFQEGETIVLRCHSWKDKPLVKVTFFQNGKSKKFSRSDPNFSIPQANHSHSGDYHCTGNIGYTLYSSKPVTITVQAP

[5] = molecular target: T5, human FcγRIa on the cell surface (transfected CHO-S cells, M0/M1 macrophages, hMDM, FcγRI effector reporter … (human, UniProt P12314 16-374)); assay: flow cytometry on CHO-S cells transiently expressing human FcγRIa, PE goat anti-human IgG F(ab')2, % PE+ cells
T5 construct: whole, on cells; also called CD64

[6] = molecular target: T6, recombinant His-tagged human FcγRIIIa, 176-Val [V] / V158 variant (human, UniProt P08637 17-208); assay: SPR (Biacore 8K), His-tagged FcγR captured on anti-His chip, antibody injected, binding response (RU), n=3
T6 construct: also called FcγRIIIa-V; FcγRIIIa-V158

[7] = molecular target: T7, human complement protein C1q (from normal human serum) (human, UniProt P02745 23-245; P02746 28-253; P02747 29-245); assay: flow cytometry, C1q (20% normal human serum) binding to antibody bound on human T cells, FITC anti-C1q
T7 construct: Native C1q supplied as 20% normal human serum

[8] = molecular target: T7, human complement protein C1q (from …); assay: flow cytometry, C1q (20% normal human serum) binding to antibody bound on human T cells, FITC anti-C1q, median MFI FITC
[9] = molecular target: T8, human CD27 on the cell surface (T cells, transfected HEK293F cells, Daudi cells, NFκB-luc2/CD27 Jurkat cells) (human, UniProt P26842 20-240); assay: flow cytometry on T cells in human PBMC (endogenous CD27), PE-labeled goat anti-human IgG, median MFI PE
T8 construct: Full length human CD27, endogenous or transfected; also called TNFRSF7

[10] = molecular target: T8, human CD27 on the cell surface (T …); assay: flow cytometry on HEK293F cells transfected with human CD27, PE-labeled goat anti-human IgG, median MFI PE
[11] = molecular target: human CD27-A59T variant on transfected HEK293F cells (human, UniProt P26842 20-260); assay: flow cytometry on HEK293F cells transfected with human CD27-A59T, PE-labeled goat anti-human IgG, median MFI PE
[12] = molecular target: T9, cynomolgus monkey CD27 on the cell surface (T cells, transfected HEK293F cells) (cynomolgus monkey, UniProt P26842 20-260 (human entry)); assay: flow cytometry on T cells in cynomolgus monkey PBMC (endogenous CD27), PE-labeled goat anti-human IgG, median MFI PE
T9 construct: also called Cyno CD27
T9 chain: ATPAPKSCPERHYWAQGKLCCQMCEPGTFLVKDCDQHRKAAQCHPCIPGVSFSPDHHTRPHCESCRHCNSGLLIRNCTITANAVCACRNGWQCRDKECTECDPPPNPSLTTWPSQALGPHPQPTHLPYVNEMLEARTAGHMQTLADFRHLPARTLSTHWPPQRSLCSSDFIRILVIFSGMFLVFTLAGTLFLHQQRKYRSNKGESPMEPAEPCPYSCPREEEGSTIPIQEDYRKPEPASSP

[13] = molecular target: T9, cynomolgus monkey CD27 on the cell …; assay: flow cytometry on HEK293F cells transfected with cynomolgus monkey CD27, PE-labeled goat anti-human IgG, median MFI PE
[14] = molecular target: T10, recombinant cynomolgus monkey CD27-Fc fusion protein (R&D systems, Cat #9904-CD-100) (cynomolgus monkey, UniProt P26842 21-192 (human entry), limits assumed); assay: BLI (Octet HTX); cyno CD27-Fc on AR2G sensor, antibody monovalent for CD27 in solution; 1:1 model
T10 construct: Bought protein; also called Cyno CD27-Fc; not shown: Fc part of the fusion; not described
T10 chain: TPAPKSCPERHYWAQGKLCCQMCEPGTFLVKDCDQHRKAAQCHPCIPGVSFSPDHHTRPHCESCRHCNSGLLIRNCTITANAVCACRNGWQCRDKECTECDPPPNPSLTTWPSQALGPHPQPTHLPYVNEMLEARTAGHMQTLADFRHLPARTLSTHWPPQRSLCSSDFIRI

[15] = molecular target: T11, recombinant His-tagged human CD27 protein (Sino Biological, Cat #10039-H08B1) (human, UniProt P26842 20-192); assay: BLI (Octet HTX); CD27-His on anti-Penta-HIS sensor, antibody monovalent for CD27 in solution; 1:1 model
T11 construct: Bought protein; also called Human CD27-His; not shown: His tag

[16] = molecular target: T12, recombinant His-tagged human FcγRIIIa, 176-Phe [F] / F158 variant (human, UniProt P08637 17-208); assay: SPR (Biacore 8K), His-tagged FcγR captured on anti-His chip, antibody injected, binding response (RU), n=3
T12 construct: also called FcγRIIIa-F; FcγRIIIa-F158

[17] = molecular target: cynomolgus monkey PD-1 on transfected CHO-S cells (cynomolgus monkey, UniProt B0LAJ3 25-288); assay: flow cytometry on CHO-S cells transiently transfected with cynomolgus monkey PD-1, PE goat anti-human IgG F(ab')2, gMFI (PE)
Chain of cynomolgus monkey PD-1 on transfected CHO-S cells (B0LAJ3 entry or part of it limits assumed): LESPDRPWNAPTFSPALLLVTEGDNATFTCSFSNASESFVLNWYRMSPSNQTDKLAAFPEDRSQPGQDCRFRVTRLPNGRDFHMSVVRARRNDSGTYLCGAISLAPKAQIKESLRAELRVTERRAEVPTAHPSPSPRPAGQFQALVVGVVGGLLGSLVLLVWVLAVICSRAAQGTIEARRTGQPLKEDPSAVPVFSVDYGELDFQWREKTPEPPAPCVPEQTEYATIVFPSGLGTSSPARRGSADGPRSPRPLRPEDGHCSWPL

T5 sequence (P12314 16-374): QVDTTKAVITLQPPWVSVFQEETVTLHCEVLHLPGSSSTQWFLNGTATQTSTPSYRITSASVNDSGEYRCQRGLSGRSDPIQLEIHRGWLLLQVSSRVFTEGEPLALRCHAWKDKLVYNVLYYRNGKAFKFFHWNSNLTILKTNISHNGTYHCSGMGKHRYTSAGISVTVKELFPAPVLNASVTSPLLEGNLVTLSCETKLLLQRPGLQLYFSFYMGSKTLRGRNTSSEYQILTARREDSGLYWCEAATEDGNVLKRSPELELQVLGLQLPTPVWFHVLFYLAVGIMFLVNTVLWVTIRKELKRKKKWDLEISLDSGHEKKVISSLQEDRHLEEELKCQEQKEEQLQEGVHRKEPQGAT
T7 sequence (P02745 23-245, chain 1 of 3): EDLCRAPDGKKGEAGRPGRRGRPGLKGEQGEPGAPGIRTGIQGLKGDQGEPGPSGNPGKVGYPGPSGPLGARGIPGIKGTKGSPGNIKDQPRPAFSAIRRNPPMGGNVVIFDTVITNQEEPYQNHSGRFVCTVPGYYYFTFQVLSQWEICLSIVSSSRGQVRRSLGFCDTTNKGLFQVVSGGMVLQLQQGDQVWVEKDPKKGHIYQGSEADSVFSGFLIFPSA
T7 sequence (P02746 28-253, chain 2 of 3): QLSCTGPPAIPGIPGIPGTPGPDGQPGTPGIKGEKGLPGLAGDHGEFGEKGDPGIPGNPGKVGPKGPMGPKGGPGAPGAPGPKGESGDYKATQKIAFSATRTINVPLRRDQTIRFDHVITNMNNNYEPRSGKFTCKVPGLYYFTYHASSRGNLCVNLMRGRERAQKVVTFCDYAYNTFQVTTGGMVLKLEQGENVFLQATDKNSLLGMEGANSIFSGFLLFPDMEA
T7 sequence (P02747 29-245, chain 3 of 3): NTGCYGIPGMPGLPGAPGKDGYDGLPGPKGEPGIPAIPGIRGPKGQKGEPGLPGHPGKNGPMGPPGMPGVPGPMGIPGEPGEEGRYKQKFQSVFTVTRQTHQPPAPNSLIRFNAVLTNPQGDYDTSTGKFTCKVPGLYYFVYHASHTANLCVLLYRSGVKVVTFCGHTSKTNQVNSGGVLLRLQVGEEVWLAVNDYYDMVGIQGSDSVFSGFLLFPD
T6 sequence (P08637 other isoform, or with tags, fused parts or gaps mutant limits assumed): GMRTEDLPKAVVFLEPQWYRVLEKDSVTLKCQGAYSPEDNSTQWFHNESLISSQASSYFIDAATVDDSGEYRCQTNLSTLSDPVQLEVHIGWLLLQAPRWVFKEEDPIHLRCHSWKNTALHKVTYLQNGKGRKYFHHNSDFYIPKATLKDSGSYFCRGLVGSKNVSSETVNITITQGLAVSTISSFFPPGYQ
T12 sequence (P08637 17-208 limits assumed, change not shown): as the sequence (P08637 other isoform, or with tags, fused parts or gaps mutant limits assumed) above, with V160F counted along it

B1: nivolumab (antibody, human IgG4 S228P, kappa)
heavy: not shown
light: not shown
notes: also called Opdivo
- Kd [1]: 133 nM
- koff [1]: 0.0689 s⁻¹
- kon [1]: 518000 M⁻¹ s⁻¹
- binding result [2]: binds
- binding result [3]: binds
- binding result [4]: binds
- EC50 (read off the curve) [5]: ~0.2 µg/mL
- binding result [6]: binds

B2: IgG1-CD27-A (wild-type IgG1 Fc) (antibody)
heavy: not shown
light: QSALTQPASVSGSPGQSITISCTGTSSDVYYYNYVSWYQQHPGRAPKLVIYDVSNRPSGVSNRFSGSKSGNTASLTISGLRAEDEADYYCSSYTVNRVWVFGGGTKLTVLGQPKAAPSVTLFPPSSEELQANKATLVCLISDFYPGAVTVAWKADSSPVKAGVETTTPSKQSNNKYAASSYLSLTPEQWKSHRSYSCQVTHEGSTVEKTVAPTECS
notes: also called WT IgG1-CD27-A; IgG-CD27-A; copies: 2 + 2
- binding result [7]: no binding (tested: 15 µg/mL)

B3: IgG1-CD27-A-E345R (antibody)
heavy: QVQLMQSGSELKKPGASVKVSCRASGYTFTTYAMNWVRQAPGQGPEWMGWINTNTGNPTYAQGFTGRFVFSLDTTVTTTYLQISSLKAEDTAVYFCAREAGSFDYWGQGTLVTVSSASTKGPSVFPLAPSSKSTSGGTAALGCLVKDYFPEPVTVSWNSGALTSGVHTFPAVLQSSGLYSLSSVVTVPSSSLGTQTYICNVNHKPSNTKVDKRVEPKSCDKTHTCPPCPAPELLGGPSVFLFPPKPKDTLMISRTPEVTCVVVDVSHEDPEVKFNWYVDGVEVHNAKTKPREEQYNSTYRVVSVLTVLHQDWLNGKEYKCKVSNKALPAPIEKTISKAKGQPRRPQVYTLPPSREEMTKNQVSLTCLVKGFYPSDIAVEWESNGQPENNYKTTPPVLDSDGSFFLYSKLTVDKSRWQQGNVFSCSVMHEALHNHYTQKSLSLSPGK
light: B2 light
notes: Human IgG1 with E345R (Eu numbering); also called IgG-CD27-A-E345R; copies: 2 + 2
- binding result [8]: binds

B4: IgG1-CD27-A-E430G (antibody)
heavy: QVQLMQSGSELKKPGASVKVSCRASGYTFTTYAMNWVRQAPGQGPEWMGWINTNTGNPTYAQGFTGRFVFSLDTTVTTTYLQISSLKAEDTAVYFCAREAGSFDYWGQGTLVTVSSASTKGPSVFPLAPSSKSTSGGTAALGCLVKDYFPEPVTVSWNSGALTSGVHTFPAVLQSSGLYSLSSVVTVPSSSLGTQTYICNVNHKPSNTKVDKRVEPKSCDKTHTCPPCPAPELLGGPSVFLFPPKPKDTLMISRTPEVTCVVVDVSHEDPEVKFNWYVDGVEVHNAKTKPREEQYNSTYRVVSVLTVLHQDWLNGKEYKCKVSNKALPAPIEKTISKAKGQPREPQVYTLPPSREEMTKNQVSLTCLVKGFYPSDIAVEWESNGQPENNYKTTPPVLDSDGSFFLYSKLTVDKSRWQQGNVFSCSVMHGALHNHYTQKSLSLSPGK
light: B2 light
notes: Human IgG1 with E430G (Eu numbering); copies: 2 + 2
- EC50 (read off the curve) [8]: ~0.03 µg/mL

B5: dostarlimab (antibody)
chain 1: not shown
chain 2: DIQLTQSPSFLSAYVGDRVTITCKASQDVGTAVAWYQQKPGKAPKLLIYWASTLHTGVPSRFSGSGSGTEFTLTISSLQPEDFATYYCQHYSSYPWTFGQGTKLEIKRTVAAPSVFIFPPSDEQLKSGTASVVCLLNNFYPREAKVQWKVDNALQSGNSQESVTEQDSKDSTYSLSSTLTLSKADYEKHKVYACEVTHQGLSSPVTKSFNRGEC
- EC50 (read off the curve) [5]: ~0.2 µg/mL

B6: IgG1-CD27-A carrying F405L-L234F-L235E-D265A in the IgG Fc domain (antibody, V domains shown)
VH: QVQLMQSGSELKKPGASVKVSCRASGYTFTTYAMNWVRQAPGQGPEWMGWINTNTGNPTYAQGFTGRFVFSLDTTVTTTYLQISSLKAEDTAVYFCAREAGSFDYWGQGTLVTVSS
VL: QSALTQPASVSGSPGQSITISCTGTSSDVYYYNYVSWYQQHPGRAPKLVIYDVSNRPSGVSNRFSGSKSGNTASLTISGLRAEDEADYYCSSYTVNRVWVFGGGTKLTVL
- EC50 (read off the curve) [9]: ~0.04 µg/mL
- EC50 (read off the curve) [10]: ~0.1 µg/mL
- EC50 (read off the curve) [11]: ~0.2 µg/mL
- EC50 (read off the curve) [12]: ~0.03 µg/mL
- EC50 (read off the curve) [13]: ~0.06 µg/mL

B7: IgG1-CD27-A as bispecific antibody with one CD27-specific Fab-arm and one non-binding Fab-arm (bispecific antibody)
chain 1: B6 VH
chain 2: B6 VL
chain 3: QVQLVQSGAEVKKPGASVKVSCQASGYRFSNFVIHWVRQAPGQRFEWMGWINPYNGNKEFSAKFQDRVTFTADTSANTAYMELRSLRSADTAVYYCARVGPYSWDDSPQDNYYMDVWGKGTTVIVSSASTKGPSVFPLAPSSKSTSGGTAALGCLVKDYFPEPVTVSWNSGALTSGVHTFPAVLQSSGLYSLSSVVTVPSSSLGTQTYICNVNHKPSNTKVDKRVEPKSCDKTHTCPPCPAPEFEGGPSVFLFPPKPKDTLMISRTPEVTCVVVAVSHEDPEVKFNWYVDGVEVHNAKTKPREEQYNSTYRVVSVLTVLHQDWLNGKEYKCKVSNKALPAPIEKTISKAKGQPREPQVYTLPPSREEMTKNQVSLTCLVKGFYPSDIAVEWESNGQPENNYKTTPPVLDSDGSFFLYSRLTVDKSRWQQGNVFSCSVMHEALHNHYTQKSLSLSPG
chain 4: EIVLTQSPGTLSLSPGERATFSCRSSHSIRSRRVAWYQHKPGQAPRLVIHGVSNRASGISDRFSGSGSGTDFTLTITRVEPEDFALYYCQVYGASSYTFGQGTKLERKRTVAAPSVFIFPPSDEQLKSGTASVVCLLNNFYPREAKVQWKVDNALQSGNSQESVTEQDSKDSTYSLSSTLTLSKADYEKHKVYACEVTHQGLSSPVTKSFNRGEC
- Kd [14]: 120 nM
- koff [14]: 0.02 s⁻¹
- kon [14]: 170000 M⁻¹ s⁻¹
- Kd [15]: 130 nM
- koff [15]: 0.018 s⁻¹
- kon [15]: 130000 M⁻¹ s⁻¹

B8: pembrolizumab (antibody, human IgG4 S228P, kappa)
heavy: not shown
light: EIVLTQSPATLSLSPGERATLSCRASKGVSTSGYSYLHWYQQKPGQAPRLLIYLASYLESGVPARFSGSGSGTDFTLTISSLEPEDFAVYYCQHSRDLPLTFGGGTKVEIKRTVAAPSVFIFPPSDEQLKSGTASVVCLLNNFYPREAKVQWKVDNALQSGNSQESVTEQDSKDSTYSLSSTLTLSKADYEKHKVYACEVTHQGLSSPVTKSFNRGEC
notes: also called Keytruda
- EC50 (read off the curve) [5]: ~0.8 µg/mL
- binding result [16]: binds
- binding result [6]: binds
- EC50 (read off the curve) [17]: ~0.05 µg/mL
